According to patent US20150337051A1 (MORPHOTEK, published 2015):

Columns and labels:
[1] = biological target: T1, recombinant CHO TEM-1 Fc fusion protein (UniProt Q9HCU0); assay: ECL sandwich, competition: biotin-9G5 capture, sulfo-TAG-15F8 detection; MORAb-004 spike 3.125 µg/mL, TEM-1-Fc QC 0.08 ng/mL; recovery at 0 µg/mL MORAb-004: 114
T1 sequence (looked up): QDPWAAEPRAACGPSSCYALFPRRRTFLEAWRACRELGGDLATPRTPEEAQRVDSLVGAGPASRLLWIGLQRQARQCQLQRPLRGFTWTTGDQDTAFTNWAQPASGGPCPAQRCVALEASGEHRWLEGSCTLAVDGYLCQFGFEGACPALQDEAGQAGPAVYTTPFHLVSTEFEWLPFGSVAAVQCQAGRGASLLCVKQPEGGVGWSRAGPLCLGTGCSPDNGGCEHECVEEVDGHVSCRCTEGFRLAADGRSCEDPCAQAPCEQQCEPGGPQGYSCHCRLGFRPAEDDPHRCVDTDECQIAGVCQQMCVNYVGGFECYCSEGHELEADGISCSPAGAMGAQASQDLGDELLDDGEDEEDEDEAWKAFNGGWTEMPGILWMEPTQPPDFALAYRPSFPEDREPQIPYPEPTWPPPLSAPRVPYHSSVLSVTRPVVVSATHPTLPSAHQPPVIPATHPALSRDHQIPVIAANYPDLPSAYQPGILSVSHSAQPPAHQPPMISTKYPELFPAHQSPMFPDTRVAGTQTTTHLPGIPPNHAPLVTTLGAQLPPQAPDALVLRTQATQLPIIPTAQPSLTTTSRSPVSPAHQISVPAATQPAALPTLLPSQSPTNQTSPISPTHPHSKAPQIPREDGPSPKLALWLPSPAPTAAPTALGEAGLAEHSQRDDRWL

[2] = biological target: T1, recombinant CHO TEM-1 Fc fusion protein; assay: ECL sandwich, competition: biotin-9G5 capture, sulfo-TAG-15F8 detection; MORAb-004 spike 3.125 µg/mL, TEM-1-Fc QC 2 ng/mL; recovery at 0 µg/mL MORAb-004: 106
[3] = biological target: T1, recombinant CHO TEM-1 Fc fusion protein; assay: ECL sandwich, competition: biotin-9G5 capture, sulfo-TAG-15F8 detection; MORAb-004 spike 25 µg/mL, TEM-1-Fc QC 2 ng/mL; recovery at 0 µg/mL MORAb-004: 106
[4] = biological target: T1, recombinant CHO TEM-1 Fc fusion protein; assay: ECL sandwich, competition: biotin-9G5 capture, sulfo-TAG-15F8 detection; MORAb-004 spike 0.78125 µg/mL, TEM-1-Fc QC 2 ng/mL; recovery at 0 µg/mL MORAb-004: 106
[5] = biological target: T1, recombinant CHO TEM-1 Fc fusion protein; assay: ECL sandwich, competition: biotin-9G5 capture, sulfo-TAG-15F8 detection; MORAb-004 spike 12.5 µg/mL, TEM-1-Fc QC 50 ng/mL; recovery at 0 µg/mL MORAb-004: 104
[6] = biological target: T1, recombinant CHO TEM-1 Fc fusion protein; assay: ECL sandwich, competition: biotin-9G5 capture, sulfo-TAG-15F8 detection; MORAb-004 spike 0.78125 µg/mL, TEM-1-Fc QC 0.4 ng/mL; recovery at 0 µg/mL MORAb-004: 109
[7] = biological target: T1, recombinant CHO TEM-1 Fc fusion protein; assay: ECL sandwich, competition: biotin-9G5 capture, sulfo-TAG-15F8 detection; MORAb-004 spike 3.125 µg/mL, TEM-1-Fc QC 50 ng/mL; recovery at 0 µg/mL MORAb-004: 104
[8] = biological target: T1, recombinant CHO TEM-1 Fc fusion protein; assay: ECL sandwich, competition: biotin-9G5 capture, sulfo-TAG-15F8 detection; MORAb-004 spike 25 µg/mL, TEM-1-Fc QC 0.08 ng/mL; recovery at 0 µg/mL MORAb-004: 114
[9] = biological target: T1, recombinant CHO TEM-1 Fc fusion protein; assay: ECL sandwich, competition: biotin-9G5 capture, sulfo-TAG-15F8 detection; MORAb-004 spike 6.25 µg/mL, TEM-1-Fc QC 0.4 ng/mL; recovery at 0 µg/mL MORAb-004: 109
[10] = biological target: T1, recombinant CHO TEM-1 Fc fusion protein; assay: ECL sandwich, competition: biotin-9G5 capture, sulfo-TAG-15F8 detection; MORAb-004 spike 50 µg/mL, TEM-1-Fc QC 10 ng/mL; recovery at 0 µg/mL MORAb-004: 105

- % Recovery of TEM-1 QCs spiked with MORAb-004 [1]: 103%
- % Recovery of TEM-1 QCs spiked with MORAb-004 [2]: 96%
- % Recovery of TEM-1 QCs spiked with MORAb-004 [3]: 89.1%
- % Recovery of TEM-1 QCs spiked with MORAb-004 [4]: 99.9%
- % Recovery of TEM-1 QCs spiked with MORAb-004 [5]: 92.1%
- % Recovery of TEM-1 QCs spiked with MORAb-004 [6]: 105%
- % Recovery of TEM-1 QCs spiked with MORAb-004 [7]: 94.5%
- % Recovery of TEM-1 QCs spiked with MORAb-004 [8]: 96%
- % Recovery of TEM-1 QCs spiked with MORAb-004 [9]: 98%
- % Recovery of TEM-1 QCs spiked with MORAb-004 [10]: 87%
B1: MORAb-004 (antibody, INN chains, looked up, V domains shown)
VH: QVQLQESGPGLVRPSQTLSLTCTASGYTFTDYVIHWVKQPPGRGLEWIGYINPYDDDTTYNQKFKGRVTMLVDTSSNTAYLRLSSVTAEDTAVYYCARRGNSYDGYFDYSMDYWGSGTPVTVSS
VL: DIQMTQSPSSLSASVGDRVTITCRASQNVGTAVAWLQQTPGKAPKLLIYSASNRYTGVPSRFSGSGSGTDYTFTISSLQPEDIATYYCQQYTNYPMYTFGQGTKVQIK
